Patent US20250042976A1 (ROCHE DIAGNOSTICS OPERATIONS, published 2025)

Assays:
RBD Omikron = RBD Omikron (SARS-CoV-2, Omicron variant)
RBD-E484K = RBD-E484K (SARS-CoV-2, UniProt P0DTC2)
RBD-E406W = RBD-E406W (SARS-CoV-2, UniProt P0DTC2)
RBD-L452Q F490S = RBD-L452Q F490S (SARS-CoV-2, UniProt P0DTC2)

B1: Antibody 1F12 (antibody, V domains shown)
VH: QSLEESGGDLVKPGASLTLTCTASGFSFSNNYVMCWVRQAPGKGLEWIGCINTGSGSTYYATWAKGRFTISKISSTTVTLQMTSLTAADTATYFCARSTTYYNYIGGNWIYVMDGFNLWGPGTLVPVSS
VL: AQVLTQTPSSVSEPVGGTVTINCQASENIYSSLAWYQQKPGQPPKLLIYDASDLASGVPSRFSGSGSGTEYTLTISGVECDDAATYYCQQGYTVDNIDNTFGGGTEVVVK
Kd (RBD Omikron): 0.28 nM
koff (RBD Omikron): 0.0012 s⁻¹
kon (RBD Omikron): 2e+06 M⁻¹ s⁻¹
Kd (RBD-E484K): 0.31 nM
koff (RBD-E484K): 0.00081 s⁻¹
kon (RBD-E484K): 2.6e+06 M⁻¹ s⁻¹
Kd (RBD-E406W): 0.75 nM
koff (RBD-E406W): 0.0016 s⁻¹
kon (RBD-E406W): 2.1e+06 M⁻¹ s⁻¹
Kd (RBD-L452Q F490S): 0.33 nM
koff (RBD-L452Q F490S): 0.0019 s⁻¹
kon (RBD-L452Q F490S): 5.8e+06 M⁻¹ s⁻¹
